Assay [1] deals with T1, human PD-L1 ECD-His (human, UniProt Q9NZQ7 19-238).
T1 construct: extracellular domain; Analyte in all SPR and BLI runs; also called hPD-L1_ECD-His; hPD-L1 ECD-His; not shown: His tag
The assay can be described thus: BLI Octet RED96, biotinylated antibody on SA sensor, hPD-L1-His analyte, 1:1 fit. Here is the method:
(§1) Briefly, black 96-well plate was prepared with columns containing 200 μL/well of reagents required for determination of affinity. In general, Octet SA sensors were first placed in wells containing 1×Kinetics Buffer (PBS, 0.1% BSA, 0.02% Tween-20, pH 7.4) for 180 seconds to establish a baseline. […] Sensors were then regenerated by 3×5 second incubations in Regeneration Buffer (10 mM Glycine, pH 1.5) followed by a 5 second incubation in 1×Kinetics Buffer each time. Regeneration was repeated before measurement of each association/dissociation cycle. Sensors were then placed in fresh 1×Kinetics Buffer for 180 seconds to establish a baseline. Association was then measured by incubating the sensors for 5 minutes in wells containing hPD-L1-His followed by transferring to wells containing 1×Kinetics Buffer for 10 minutes to measure dissociation. Kinetics (ka, kd, and […] were measured by global fitting four association/dissociation cycles of data obtained from 1:3 serial dilutions of hPD-L1-His from 38.28 nM to 1.42 nM (one association/dissociation cycle for one concentration) with a 1:1 Langmuir binding model. All data were analyzed with Octet Data Analysis Software v.9.0 and representative of two independent experiments performed in duplicate.
(§2) All the data are representative of two independent experiments performed in duplicate.

For assay [2], the target named is T2, mouse PD-L1 on B16-F10 melanoma cells (mouse, UniProt Q9EP73 19-290).
T2 construct: whole, on cells
T2 sequence (Q9EP73 19-290): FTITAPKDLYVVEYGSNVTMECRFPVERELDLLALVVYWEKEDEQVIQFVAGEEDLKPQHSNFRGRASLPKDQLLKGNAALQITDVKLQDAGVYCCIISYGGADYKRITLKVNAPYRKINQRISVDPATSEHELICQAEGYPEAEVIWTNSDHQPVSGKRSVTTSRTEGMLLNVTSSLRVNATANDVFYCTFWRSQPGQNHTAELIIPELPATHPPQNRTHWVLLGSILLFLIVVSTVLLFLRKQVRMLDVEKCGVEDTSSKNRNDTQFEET
Put plainly: flow cytometry on mouse PD-L1 expressing B16-F10 melanoma cells, FITC-labeled anti-human IgG Fcγ, MFI. On the technique in general: Flow cytometry measures light scatter and fluorescence of single cells or particles in a stream.

The target in assay [3] is T3, human PD-L1 on cells (PHA-activated human T cells); PD-L1-transfected CHO-S cells; A375 melanoma cells; … (human, UniProt Q9NZQ7 19-290).
T3 construct: whole, on cells; also called PD-L1 expressing T cells; PD-L1 expressing CHO-S cells
T3 sequence (Q9NZQ7 19-290): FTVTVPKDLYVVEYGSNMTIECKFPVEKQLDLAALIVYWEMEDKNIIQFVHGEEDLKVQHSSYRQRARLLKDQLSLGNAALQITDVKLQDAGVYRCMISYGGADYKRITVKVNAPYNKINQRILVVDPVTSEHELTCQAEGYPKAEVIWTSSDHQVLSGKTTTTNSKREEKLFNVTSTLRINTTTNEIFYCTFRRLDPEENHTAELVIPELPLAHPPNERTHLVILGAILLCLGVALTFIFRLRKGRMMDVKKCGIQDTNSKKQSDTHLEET
Put plainly: flow cytometry on A375 human melanoma cells, biotin-labeled anti-human IgG Fcγ and streptavidin-PE, MFI.

Assay [4] concerns the target T1, human PD-L1 ECD-His. The assay can be described thus: BLI, ratio of KD to parental PL3#7-43. Here is the method: (§3) Briefly, black 96-well plate was prepared with columns containing 200 μL/well of reagents required for determination of affinity. In general, Octet anti-human-Fc sensors were first placed in wells containing 1×Kinetics Buffer (PBS, 0.1% BSA, 0.02% Tween-20, pH 7.4) for 180 seconds to establish a baseline. Sensors were then transferred to wells containing […] anti-PD-L1 variants for 600 seconds to load the anti-human-Fc tips. Sensors were then placed in fresh 1×Kinetics Buffer for 180 seconds to establish a baseline. Association was then measured by incubating the sensors for 3 minutes in wells containing hPD-L1-His followed by transferring to wells containing 1×Kinetics Buffer for 10 minutes to measure dissociation. Sensors were then regenerated by 3X5 second incubations in Regeneration Buffer (10 mM Glycine, pH 1.5) followed by a 5 second incubation in 1×Kinetics Buffer each time. Regeneration was repeated before measurement of each association/dissociation cycle. […] All data were analyzed with Octet Data Analysis Software v.9.0 and representative of two independent experiments performed in duplicate.
as §2
On the technique in general: Biolayer interferometry detects binding as a change in optical thickness at a sensor tip.

Assay [5] has as its target T3, human PD-L1 on cells (PHA-activated …). The assay can be described thus: flow cytometry on NCI-H292 human NSCLC cells, biotin-labeled anti-human IgG Fcγ and streptavidin-PE, MFI.
For assay [6] the target is unchanged. Put plainly: flow cytometry on PHA-activated human T cells, biotin-labeled anti-human IgG Fcγ and streptavidin-PE, MFI.
Assay [7] addresses T1, human PD-L1 ECD-His. The assay can be described thus: BLI, ratio of KD to ref-1. The protocol:
as §1, §2

The target of assay [8] is T1, human PD-L1 ECD-His. The assay can be described thus: BLI Octet RED96, antibody on AHC anti-human-Fc sensor, hPD-L1-His analyte, 1:1 fit. The protocol: as §3, §2
In assay [9] the target is T4, recombinant cynomolgus monkey PD-L1_ECD Fc-fusion protein (Sino Biological Inc.) (cynomolgus monkey, UniProt G7PSE7 19-238).
T4 construct: Bought
T4 sequence (G7PSE7 entry or part of it limits assumed): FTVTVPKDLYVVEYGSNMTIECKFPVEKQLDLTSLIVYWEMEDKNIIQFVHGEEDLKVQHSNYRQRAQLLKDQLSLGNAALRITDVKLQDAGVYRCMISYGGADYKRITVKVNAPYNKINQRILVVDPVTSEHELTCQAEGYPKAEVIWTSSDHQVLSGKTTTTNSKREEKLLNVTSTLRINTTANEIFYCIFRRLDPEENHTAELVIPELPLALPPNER
The assay can be described thus: ELISA: cynomolgus monkey PD-L1_ECD/Fc coated (9 ng/well), peroxidase-labeled goat anti-human IgG F(ab)'2, TMB, OD450. The protocol:
The recombinant cynomolgus monkey PD-L1_ECD Fc-fusion proteins were purchased from Sino Biological Inc. PD-L1_ECD/Fc (9 ng per well) were immobilized onto 96-well assay plat by incubating overnight at 4° C. Nonspecific binding sites were blocked using 5% skim milk in PBS for one hour at room temperature. After washing plates three times with PBST, indicated concentrations of anti-PD-L1 antibodies and HLX01 (negative control) were incubated with the immobilized proteins for one hour at room temperature. The plates were washed three times with PBST and then incubated for one hour at room temperature with peroxidase-labeled goat anti-human IgG F(ab)′2 (Jackson ImmunoResearch Laboratories) diluted 1/10,000 in PBS. After washing, plates were developed using TMB (eBioscience). The absorbance was read at the wavelength of 450 nm by Varioskan LUX microplate reader (Thermo Scientific).
HLX01 (anti-CD20 mAb) was used as the negative control.
(In general: ELISA stands for enzyme-linked immunosorbent assay.)

For assay [10], the target named is T3, human PD-L1 on cells (PHA-activated …). Put plainly: flow cytometry on PD-L1 transfected CHO-S cells, anti-human IgG Fc-FITC, MFI. The protocol: Binding of tested de-glycosylated variants was assessed by incubating the PD-L1 expressing CHO-S cells (2E5 cells/well) with the serial-diluted antibodies in FACS buffer (PBS with 1% FBS) at 4° C. for 30 minutes. These cells were washed with flow buffer and then stained with anti-human IgG Fc-FITC (1:500×) at 4° C. for 30 minutes to detect antibody binding on the cell surface. Flow cytometric analyses were performed using CytoFlex (Beckman Coulter Inc.).

Assay [11] addresses T1, human PD-L1 ECD-His. The assay can be described thus: Fab ELISA screen after panning on hPD-L1-His; coated antigen not named.

The source of these data is patent publication US20190225691A1 (SHANGHAI HENLIUS BIOTECH, published 2019).

One may read the Kd as a measure of binding affinity in units of concentration. The koff is a measure of how fast the partners let go of each other. What is called kon is a measure of how fast the partners come together. As a reminder, the EC50 (read off the curve) is the midpoint of the concentration-response curve.

T1 sequence (Q9NZQ7 19-238): as the sequence (G7PSE7 entry or part of it limits assumed) above, with T33A, S34A, N62S, Q68R, R82Q, L173F, A185T, I192T, L215H counted along it

B1: PL3#7-43 mtIgG1 (antibody, V domains shown)
VH: QVQLVQSGAEVKKPGSSVKVSCKASGGTFSSYPISWVRQAPGQGLEWMGRIIPILGIANYAQKFQGRVTITADKSTSTAYMELSSLRSEDTAVYYCARSRPGYAFGAFDIWGQGTLVTVSS
VL: QSVVTQPPPVSGAPGQRVTISCTGSSSNVGAGYDVHWYQQLPGTAPKLLIYGNSNRSSGVPDRFSGSKSGTSASLAITGLQAEDEADYYCQTYDSSGSARVVFGGGTKLTVLG
modifications: Antibody was biotinylated (NHS-PEG4-biotin, sites not specified) for the Octet assay of Table 11.
notes: N297A mutant human IgG1; also called PL3#7-43 parental mtIgG1
As to B1, the Kd in assay [1] was 0.313 nM; in assay [8], 0.345 nM. Further, the figures for the koff in assay [1] and in [8] were 0.000103 s⁻¹ and 0.000212 s⁻¹, respectively. Also, the kon in [1] stood at 330000 M⁻¹ s⁻¹; in assay [8] it was 628000 M⁻¹ s⁻¹. Also, the “EC50 (read off the curve)” value in assay [2] was about 5 ng/mL; in assay [3], about 2 ng/mL; in assay [5] it was about 0.01 µg/mL; in assay [6], about 8 ng/mL; in assay [9] it was about 0.04 µg/mL; in assay [10], about 0.2 µg/mL. The “Fold Difference (against parental variant)” value in assay [4] was 1 fold. The “Improvement over ref-1” value in assay [7] came to 7.86 fold.

B2: PL3#7-43 Fab (Fab, V domains shown)
VH: QVQLVQSGAEVKKPGSSVKVSCKASGGTFSSYPISWVRQAPGQGLEWMGRIIPILGIANYAQKFQGRVTITADKSTSTAYMELSSLRSEDTAVYYCARSRPGYAFGAFDIWGQGTLVTVSS
VL: QSVVTQPPPVSGAPGQRVTISCTGSSSNVGAGYDVHWYQQLPGTAPKLLIYGNSNRSSGVPDRFSGSKSGTSASLAITGLQAEDEADYYCQTYDSSGSARVVFGGGTKLTVL
For B2, the binding result in assay [11] is “binds”.

B3: PL3#7-54 Fab (Fab, V domains shown)
VH: QVQLVQSGAEVKKPGSSVKVSCKASGGTFSSYPISWVRQAPGQGLEWMGRIIPILGIADYAQKFQGRVTITADKSTSTAYMELSSLRSEDTAVYYCARSRPGYAFGAFDIWGQGTLVTVSS
VL: QSVVTQPPPVSGAPGQRVTISCTGSSSNIGQGYDVHWYQQLPGTAPKLLIYANSNRPSGVPDRFSGSKSGTSASLAITGLQAEDEADYYCQTYDSSLSARVVFGGGTKLTVL
B3: the binding result in assay [11] is on record as “binds”.

B4: PL3#7-19 Fab (Fab, V domains shown)
VH: QVQLVQSGAEVKKPGSSVKVSCKASGGTFSSYPISWVRQAPGQGLEWMGRIIPILGIANYAQKFQGRVTITADKSTSTAYMELSSLRSEDTAVYYCARSRDGYAFGAFDVWGQGTLVTVSS
VL: QSVVTQPPPVSGAPGQRVTISCTGSSSNIGGGYDVHWYQQLPGTAPKLLIYGNSTRPSGVPDRFSGSKSGTSASLAITGLQAEDEADYYCQTYDSSLSATVVFGGGTKLTVL
As for B4, in assay [11], the binding result was “binds”.
